Laboratory results reported in PMC5514147, “Characterization of HIV-1 integrase interaction with human Ku70 protein and initial implications for drug targeting” (Scientific Reports, 2017).

Target: T1, Ku70_1-250 mutant (N-terminal alpha/beta-domain of Ku70) with N-terminal GST-tag (human, UniProt P12956 1-250)
T1 construct: Ku70, human, residues 1-250 (N-terminal alpha/beta domain); also called Ku_1-250; Ku70 N-terminal domain; not shown: GST, N-terminal, kept
Experiment: pull-down; GST-pull-down: GST-Ku70 proteins (or GST) held on glutathione-agarose, His6-IN proteins as prey; buffer A (20 mM Hepes pH 7.5, 100 mM NaCl, 7.5 mM MgCl2, 2 mM 2-mercaptoethanol, 50 ug/ml BSA, 0.1% NP40), room temperature, Western blot; Kd from increasing IN at 50 nM Ku70 mutant
Conditions: both partners purified

T1 sequence (P12956 1-250, change not shown): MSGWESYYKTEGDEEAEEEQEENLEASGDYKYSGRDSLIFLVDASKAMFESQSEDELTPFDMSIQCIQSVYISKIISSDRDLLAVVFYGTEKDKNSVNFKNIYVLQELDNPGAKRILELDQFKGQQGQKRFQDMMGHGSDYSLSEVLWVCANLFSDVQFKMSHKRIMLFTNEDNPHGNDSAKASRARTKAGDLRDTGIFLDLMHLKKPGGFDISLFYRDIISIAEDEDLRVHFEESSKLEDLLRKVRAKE

B1: IN_1-220 (HIV-1 integrase with truncated C-terminal domain), N-terminal His6-tag (domain or fragment)
chain: FLDGIDKAQDEHEKYHSNWRAMASDFNLPPVVAKEIVASCDKCQLKGEAMHGQVDCSPGIWQLDCTHLEGKVILVAVHVASGYIEAEVIPAETGQETAYFLLKLAGRWPVKTIHTDNGSNFTGATVRAACWWAGIKQEFGIPYNPQSQGVVESMNKELKKIIGQVRDQAEHLKTAVQMAVFIHNFKRKGGIGGYSAGERIVDIIATDIQTKELQKQITKI
notes: not shown: His6, N-terminal, kept
For B1, which Kd is on record?
The Kd was 120 ± 30 nM.
